Experimental findings from US20220378956A1 are described below.

In the experiment the target is soluble uPAR (suPAR) (UniProt Q03405). The experiment can be described thus: SPR (Biacore 2000), antibody captured on protein A/G surface, suPAR injected, 25 C, 1:1 Langmuir fit. Background: Surface plasmon resonance follows binding to a sensor surface in real time, without labels.

B1: Human Engineered ATN-658 variant HE ATN-3 (antibody, V domains shown)
VH: EVQLVQSGPEVKKTGASVKISCKASGYSFTSYYMHWVRQAHGQGLEWIGEINPYNGGASYNQKIQGRATFTVDTSTSTAYMEFSSLRSEDTAVYYCARSIYGHSVLDYWGQGTLVTVSS
VL: DVVMTQSPLSLSVTIGEPASISCRSSQSLLDSDGKTYLNWLLQKPGQSPKRLIYLVSKRDSGVPDRFSGSGSGTDFTLKISRVEAEDVGVYYCWQGTHFPLTFGQGTKLEIK
Regarding B1, the dissociation constant Kd – broadly, the free concentration of one partner at which half of the binding sites on the other are occupied at equilibrium, for simple one-to-one binding – amounted to 0.28 nM.

B2: Human Engineered ATN-658 variant HE ATN-1 (antibody, human IgG1, V domains shown)
VH: EVQLVQSGPEVVKTGASVKISCKASGYSFTSYYMHWVKQAHGQGLEWIGEINPYNGGASYNQKIKGRATFTVDTSTRTAYMEFSSLRSEDTAVYYCARSIYGHSVLDYWGQGTLVTVSS
VL: DVVMTQSPLSLSVTIGEPASISCRSSQSLLDSDGKTYLNWLLQKPGQSPKRLIYLVSKRDSGVPDRFSGSGSGTDFTLKISRVEAEDVGVYYCWQGTHFPLTFGQGTKLEIK
For B2, the Kd turned out to be 0.28 nM. That is a sub-nanomolar value.
